According to patent US20100204100A1, “BIOLOGICAL AGENTS ACTIVE IN CENTRAL NERVOUS SYSTEM” (THE JOHNS HOPKINS UNIVERISTY, priority 2007, published 2010):
Entries after “also recorded” stand apart in the source; their conditions may differ.

Experiments:
[1] = tested on: interaction between NR2A/2B and PSD-95; test: In vivo binding assay (co-immunoprecipitation) from spinal cord homogenates of treated mice; parameters: species or system mouse; settings: 8 mg/kg intraperitoneal
Protocol: In Vitro and In Vivo Binding Assays. […] Membrane-bound proteins from the spinal lumbar enlargement segments were extracted as described previously (Tao, et al., 2003a). For in vitro binding experiments (GST pull-down), the solubilized membrane fraction and GST fusion peptide were first preincubated with different concentrations of Tat-PSD-95 PDZ2 at room temperature for 30 min. Then the membrane fraction was mixed with the GST fusion peptide at room temperature for 1 h. The resin was washed five times with washing buffer (PBS plus 500 mM NaCl and 0.1% Triton X-100) and then boiled in 1×SDS-PAGE sample buffer to elute the bound proteins. After being separated by electrophoresis, the proteins were detected by immunoblotting with anti-GST antibody (Santa Cruz Biotechnology, Santa Cruz, Calif.) and anti-NR2B antibody (Upstate Biotechnology, Lake Placid, N.Y.). For in vivo binding experiments (co-immunoprecipitation), 5 μg of the affinity-purified rabbit NR2A/2B antibody (Chemicon, Temecula, Calif.) was incubated with 100 μl of protein A-Sepharose slurry for 1 h, and the complex was spun down at 2000 rpm for 4 min. The solubilized membrane fraction (500 μg) from the different groups of treated mice as mentioned-above then was added to the Sepharose beads, and the mixture was incubated for 2-3 h at 4° C. The mixture was washed once with 1% Triton X-100 in immunoprecipitation buffer [containing (in mM): 137 sodium chloride, 2.7 potassium chloride, 4.3 disodium hydrogen phosphate, 1.4 potassium dihydrogen phosphate, 5 ethylene glycol tetraacetic acid, 1 sodium vanadate, 10 sodium pyrophosphate, 50 sodium fluoride, 0.1 phenylmethylsulfonyl fluoride, and 20 U/ml Trasylol], twice with 1% Triton X-100 in immunoprecipitation buffer plus 300 mM sodium chloride, and three times with immunoprecipitation buffer. The proteins were separated by SDS-PAGE and detected by NR2A/2B or PSD-95 antibody (Upstate Biotechnology, Lake Placid, N.Y.). As a positive control (input), 50 μg of the solubilized membrane fraction was loaded onto the gel. […]

[2] = In vivo CNS / spinal cord distribution of Tat fusion peptides after intraperitoneal injection (Western blot, immunohistochemistry); parameters: species or system mouse; settings: mice; for delivery into lumbar spinal cord, Western blot: 4 h after intraperitoneal injection; for delivery into cerebral cortex, hippocampus and lumbar spinal cord, Western blotting: 4 h after intraperitoneal injection (data not shown); for distribution in the spinal cord, immunohistochemical staining: after intraperitoneal injection; for dose dependence of delivery into the spinal cord, Western blot: intraperitoneal 2, 4, 8 mg/kg
Protocol: In Vivo Systemic Administration and Spinal Cord Distribution of Tat Fusion Peptides. Western blot analysis and immunohistochemistry were used to detect the spinal cord distribution of Tat fusion peptides after systemic administration. The purified fusion peptides at the indicated amounts were injected into mice intraperitoneally in 300 μl of PBS and 10% glycerol, as previously described (Cao, et al., 2002). The mice, assigned randomly to the experimental groups of 6-8, were given Tat-PSD-95 PDZ2 or control peptide (mutated Tat-PSD-95 PDZ2 or PSD-95 PDZ2 without Tat PTD) 4 h before sample collection. For Western blotting, lumbar spinal cord tissues were harvested, homogenized according to standard procedures, and centrifuged at 700×g for 15 min at 4° C. The extracted proteins were resolved by SDS-PAGE, electro-transferred to nitrocellulose membranes, and then immunoblotted with above-mentioned monoclonal anti-His antibody. For immunohistochemistry, sections from the spinal lumbar enlargement segments were fixed in 4% paraformaldehyde (in 0.1 M phosphate buffer, pH 7.4) for 10 min, and then incubated with the monoclonal anti-His antibody. Thereafter, the sections were rinsed with 0.01 M PBS, incubated with fluorescein isothiocyanate-conjugated anti-mouse IgG (1:80; Jackson ImmunoResearch Laboratories) for 1 h at 37° C., and rinsed again with PBS. The sections were imaged with confocal laser scanning microscopy at an excitation wavelength of 488 nm for fluorescein isothiocyanate.
The purified fusion peptides at the indicated amounts were injected intraperitoneally into mice in 300 μl of phosphate-buffered saline and 10% glycerol. The mice were given Tat-PSD-95 PDZ2 or control peptide (mutated Tat-PSD-95 PDZ2 or PSD-95 PDZ2 without Tat) 4 h before MAC measurement and righting reflex testing. All the animals were assigned randomly to experimental groups consisting of 6-8 animals each. Western blot analysis was then used to verify the CNS delivery of these fusion peptides after intraperitoneal injection.
Cerebral cortex, hippocampus, and lumbar spinal cord were harvested 4 h after intraperitoneal injection of the fusion peptides. Total proteins from these tissues were extracted. In brief, the tissues were removed and homogenized in homogenization buffer^18 (10 mM Tris-HCl, 5 mM MgCl2, 2 mM EGTA, 1 mM phenylmethylsulfonyl fluoride, […] leupeptin, 2 μM pepstatin A, and 320 mM sucrose, pH 7.4). The crude homogenates were centrifuged at 700×g for […] at 4° C. The pellets were rehomogenized and spun again at 700×g, and the supernatants were combined and diluted in resuspension buffer^18 (10 mM Tris-HCl, 5 mM MgCl2, 2 mM EGTA, 1 mM phenylmethylsulfonyl fluoride, 1 μM leupeptin, 2 μM pepstatin A, and 250 mM sucrose, pH 7.4). Next, the protein extracts were resolved by sodium dodecyl sulfate-polyacrylamide gel electrophoresis, electrotransferred to nitrocellulose membranes, and then immunoblotted with monoclonal anti-His antibody (Sigma, St. Louis, Mo.) diluted (1:1,000) in blocking solution containing 3% nonfat dry milk and 0.1% Tween-20 in Tris-HCl-buffered saline for 1 h at room temperature. After extensive washing, the membranes were incubated with horseradish peroxidase-conjugated anti-mouse immunoglobulin (Bio-Rad Laboratories, Hercules, Calif.) at a dilution of 1:3,000 for another 1 h. Specific proteins were detected by enhanced chemiluminescence (Amersham, Piscataway, N.J.). Tubulin served as a loading control and cerebral cortex was used for its detection.

B1: Tat-PSD-95 PDZ2: His-tagged fusion peptide: HIV Tat minimal transduction domain (residues 47-57) fused to the second PDZ domain of PSD-95 (protein)
chain: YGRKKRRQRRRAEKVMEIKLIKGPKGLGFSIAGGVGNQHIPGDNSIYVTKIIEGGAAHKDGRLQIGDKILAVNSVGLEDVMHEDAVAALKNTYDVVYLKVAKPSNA
[1]
  effect on interaction between NR2A/2B and PSD-95, co-immunoprecipitation: markedly disrupted; also recorded: markedly blocked
[2]
  delivery into lumbar spinal cord, Western blot: delivered into lumbar spinal cord
  delivery into cerebral cortex, hippocampus and lumbar spinal cord, Western blotting: delivered into cerebral cortex, hippocampus and lumbar spinal cord
  distribution in the spinal cord, immunohistochemical staining: distributed in the spinal cord
  dose dependence of delivery into the spinal cord, Western blot: dose-dependently delivered; also recorded: dose-dependent
[2]; listed as Tat-P SD-95 PDZ2
  dose dependence of delivery into the spinal cord, Western blot: dose-dependent

B2: mutated Tat-PSD-95 PDZ2: Control fusion peptide: Tat-PSD-95 PDZ2 with three sites critical for NMDAR/PSD-95 interaction mutated (K165T, L170R and H182L) (protein)
chain: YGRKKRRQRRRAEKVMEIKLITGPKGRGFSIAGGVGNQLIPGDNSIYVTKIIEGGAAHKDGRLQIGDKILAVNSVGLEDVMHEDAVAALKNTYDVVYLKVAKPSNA
[1]
  effect on interaction between NR2A/2B and PSD-95, co-immunoprecipitation: no effect; also recorded: neither mutated Tat-PSD-95 PDZ2 (8 mg/kg) nor PSD-95 PDZ2 (8 mg/kg) had an effect
[2]
  delivery into lumbar spinal cord, Western blot: delivered into lumbar spinal cord
  delivery into cerebral cortex, hippocampus and lumbar spinal cord, Western blotting: delivered into cerebral cortex, hippocampus and lumbar spinal cord
[2]; intraperitoneal injection, Western blot
  difference in PTD-mediated spinal delivery versus Tat-PSD-95 PDZ2: No significant difference

B3: PSD-95 PDZ2: Control peptide containing the same sequences as Tat-PSD-95 PDZ2 but without Tat PTD (protein)
chain: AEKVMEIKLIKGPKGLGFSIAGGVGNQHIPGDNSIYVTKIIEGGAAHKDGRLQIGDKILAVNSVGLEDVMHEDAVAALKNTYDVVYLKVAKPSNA
[1]
  effect on interaction between NR2A/2B and PSD-95, co-immunoprecipitation: neither mutated Tat-PSD-95 PDZ2 (8 mg/kg) nor PSD-95 PDZ2 (8 mg/kg) had an effect
[2]; listed as PSD-95 PDZ2 without Tat
  delivery into lumbar spinal cord, Western blot: not detected
[2]
  distribution in the spinal cord, immunohistochemical staining: not detected
